# From the supplement of paper PMC10126150
# ± gives the standard deviation of the averaged measurements.
# System: ATP
# Assay: switch fluorescence ratio, 500 uM ATP over buffer (Cy3 cluster intensity, sum of 5 cycles each) (fold (ratio)); higher = stronger signal-on switching upon ATP binding; sequences stand for … in TCGTCGGCAGCGTCAGATGTGTATAAGAGACAGTTTTTTTTTTTTTTTTTTTTTTTTT…TC
# Details: aptamer strand: ATP DNA aptamer (quencher-CACCTGGGGGAGTATTGCGGAGGAAGG + anchor), 100 nM annealed; ATP concentration: 500 uM
# In short: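 Exposure to 500 uM ATP lasted 15 min at 22 °C before imaging, and a selection-buffer image was taken beforehand, for Cy3-labelled switching-strand clusters on a modified Illumina MiSeq flow-cell annealed to 100 nM quencher-labelled ATP aptamer. Five buffer/ATP cycles were run with NaOH stripping and re-annealing between them. The fluorescence ratio per cluster is summed target-cycle over summed buffer-cycle Cy3 intensity, averaged per switch-domain sequence. Clusters outside 100-1000 RFU were excluded.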
row,Sequence,switch fluorescence ratio
1,AATGGGCAAG,1.05 ± 0.015
2,AATGGGCCCT,0.979 ± 0.047
3,AATGGGCGGA,0.995 ± 0.017
4,AATGGGCGTC,0.9902 ± 0.0069
5,AATGGGGCCT,1.03 ± 0.02
6,AATGGGGCGG,1.03 ± 0.034
7,AATGGGGTTT,0.9689 ± 0.0085
8,AATGGGTATT,0.987 ± 0.026
9,AATGGGTCGT,0.9673 ± 0.0077
10,AATGGGTTTT,0.976 ± 0.011
11,AATGGTAATA,0.986 ± 0.025
12,AATGGTATTC,0.998 ± 0.025
13,AATGGTCGTG,0.998 ± 0.02
14,AATGGTGGCT,1.11 ± 0.099
15,AATGGTGGGG,0.9912 ± 0.0053
16,AATGGTGGGT,1.01 ± 0.036
17,AATGGTGGTC,0.998 ± 0.012
18,AATGGTGGTT,0.996 ± 0.03
19,AATGGTTATC,0.9753 ± 0.0046
20,AATGGTTGGT,0.994 ± 0.016
21,AATGGTTTGC,1.13 ± 0.23
22,AATGTAAACG,0.978 ± 0.027
23,AATGTAGGAC,1.018 ± 0.0026
24,AATGTAGGCT,1.03 ± 0.027
25,AATGTCGACG,0.994 ± 0.036

row,Sequence,switch fluorescence ratio
1,AATGTGCGTT,0.993 ± 0.04
2,AATGTGGCGC,0.9643 ± 0.0043
3,AATGTGTCCC,0.991 ± 0.041
4,AATGTGTGCT,0.949 ± 0.0099
5,AATGTTACGG,1.061 ± 0.0098
6,AATGTTATAT,1.01 ± 0.014
7,AATGTTCAGG,0.995 ± 0.021
8,AATGTTGAAG,0.987 ± 0.034
9,AATGTTTAAA,0.9764 ± 0.0016
10,AATGTTTCTG,0.998 ± 0.038
11,AATGTTTTTT,1 ± 0.016
12,AATTAATGGT,0.978 ± 0.011
13,AATTAATTAA,1.004 ± 0.01
14,AATTAATTTT,0.995 ± 0.038
15,AATTACGGTG,1.05 ± 0.022
16,AATTACTTCT,1.042 ± 0.0026
17,AATTAGAATG,0.974 ± 0.029
18,AATTAGACGT,0.988 ± 0.015
19,AATTAGGCGG,1.02 ± 0.02
20,AATTAGTGCT,0.9938 ± 0.0069
21,AATTATGTCA,1.01 ± 0.022
22,AATTATTGGC,1.02 ± 0.061
23,AATTCAGATG,0.9623 ± 0.0077
24,AATTCAGCCT,1.06 ± 0.035
25,AATTCAGTTT,1.01 ± 0.033

row,Sequence,switch fluorescence ratio
1,AATTCATTTT,1.03 ± 0.059
2,AATTCCATTT,1.01 ± 0.023
3,AATTCCGGCG,1.12 ± 0.098
4,AATTCCGGGA,1.05 ± 0.068
5,AATTCCTCTT,1.05 ± 0.048
6,AATTCGACGA,1.006 ± 0.0056
7,AATTCGCGGG,0.981 ± 0.0069
8,AATTCGTGTT,0.989 ± 0.021
9,AATTCTTTTG,1.01 ± 0.043
10,AATTGACCCC,1.09 ± 0.023
11,AATTGACTTT,1.04 ± 0.011
12,AATTGCACGG,1.04 ± 0.016
13,AATTGCGTCA,0.9608 ± 0.0066
14,AATTGCGTTT,1.01 ± 0.024
15,AATTGGAAGT,1.01 ± 0.04
16,AATTGGATCT,1.01 ± 0.027
17,AATTGGATGT,1.01 ± 0.021
18,AATTGGGATT,0.998 ± 0.026
19,AATTGGGCCT,1.034 ± 0.003
20,AATTGGTCAT,1 ± 0.018
21,AATTGGTGGG,0.9916 ± 0.0084
22,AATTGGTTCG,0.984 ± 0.012
23,AATTGTAGGG,0.987 ± 0.03
24,AATTGTAGTT,0.9786 ± 0.0048
25,AATTGTATTA,0.973 ± 0.041

row,Sequence,switch fluorescence ratio
1,AATTGTCATT,1.01 ± 0.019
2,AATTGTCGCG,1.01 ± 0.012
3,AATTGTGGTT,0.97 ± 0.043
4,AATTGTTGTG,1 ± 0.022
5,AATTGTTTAT,0.9998 ± 0.0092
6,AATTTAAAAA,0.986 ± 0.022
7,AATTTAAATT,1 ± 0.037
8,AATTTAAGGT,0.977 ± 0.022
9,AATTTAATGG,1.04 ± 0.053
10,AATTTACGTG,1.06 ± 0.011
11,AATTTAGGTC,0.934 ± 0.028
12,AATTTAGTAT,0.996 ± 0.022
13,AATTTAGTGC,0.998 ± 0.07
14,AATTTCGCAA,3.4 ± 1.3
15,AATTTGCCGT,1.04 ± 0.042
16,AATTTGGGGC,0.982 ± 0.022
17,AATTTGGTTA,0.995 ± 0.045
18,AATTTGTAAA,0.981 ± 0.04
19,AATTTGTCCG,0.992 ± 0.041
20,AATTTTAGAG,0.973 ± 0.045
21,AATTTTAGCT,1.008 ± 0.0066
22,AATTTTGCTG,0.9662 ± 0.0053
23,AATTTTGTGG,1.03 ± 0.014
24,AATTTTTAT,1 ± 0.0022
25,AATTTTTTGA,0.972 ± 0.033

row,Sequence,switch fluorescence ratio
1,AATTTTTTTG,1.04 ± 0.051
2,AATTTTTTTT,1.01 ± 0.043
3,ACAAACTGCA,1.17 ± 0.067
4,ACAAATTGCC,1.031 ± 0.0017
5,ACAACAGCAC,1.18 ± 0.03
6,ACAAGACTGT,1.04 ± 0.048
7,ACAAGGAATG,0.997 ± 0.044
8,ACAAGGGCAT,1.03 ± 0.025
9,ACAAGGGGGG,1 ± 0.045
10,ACAAGGGTTA,0.999 ± 0.018
11,ACAAGGGTTC,1 ± 0.015
12,ACAAGTCGTT,0.972 ± 0.039
13,ACAATAAAAG,1.05 ± 0.044
14,ACAATGAGTG,1.003 ± 0.0011
15,ACAATGTCTA,0.962 ± 0.022
16,ACACACGGTC,1.34 ± 0.1
17,ACACAGGGTC,1.07 ± 0.011
18,ACACCTAAAC,1.065 ± 0.0096
19,ACACGATGCC,1 ± 0.043
20,ACACGGGGGC,1 ± 0.059
21,ACACGTGGGA,1.015 ± 0.0032
22,ACACGTGGGC,1.02 ± 0.029
23,ACACGTTTTT,1 ± 0.014
24,ACACTAGGGG,1.23 ± 0.17
25,ACACTTAGCT,1.07 ± 0.025

row,Sequence,switch fluorescence ratio
1,ACAGCGGCTA,1.02 ± 0.017
2,ACAGCGGGGG,1.03 ± 0.045
3,ACAGCGTTTG,0.983 ± 0.03
4,ACAGCTGGCG,1.05 ± 0.024
5,ACAGCTGGGT,0.98 ± 0.015
6,ACAGCTTTGA,0.985 ± 0.026
7,ACAGGAGGAA,1.01 ± 0.046
8,ACAGGATGTT,1.01 ± 0.027
9,ACAGGCTGCG,0.995 ± 0.024
10,ACAGGCTGGT,1.02 ± 0.028
11,ACAGGGGAGA,1.03 ± 0.024
12,ACAGGGGCCA,0.999 ± 0.011
13,ACAGGGGGCT,1.04 ± 0.051
14,ACAGGGGGGG,1.07 ± 0.19
15,ACAGGGGTAT,1.02 ± 0.066
16,ACAGGGGTTG,0.978 ± 0.033
17,ACAGGTTGGT,1.03 ± 0.018
18,ACAGTGCTGC,0.978 ± 0.012
19,ACAGTGTGTG,1.02 ± 0.027
20,ACAGTTAGGG,1.02 ± 0.024
21,ACAGTTCTTG,0.997 ± 0.023
22,ACATAATTAG,1.016 ± 0.0095
23,ACATAGCTTG,1.03 ± 0.011
24,ACATAGGCGG,1.022 ± 0.0083
25,ACATAGGGGT,1.01 ± 0.013

row,Sequence,switch fluorescence ratio
1,ACATCATAAA,0.988 ± 0.023
2,ACATCATAGC,1.048 ± 0.0076
3,ACATGAAGAT,1.031 ± 0.0025
4,ACATGAGCGG,0.971 ± 0.019
5,ACATGAGGGA,1.02 ± 0.067
6,ACATGAGGGG,1.026 ± 0.0094
7,ACATGATAGT,1.01 ± 0.043
8,ACATGGGGCG,1 ± 0.054
9,ACATGTAGAG,1 ± 0.0056
10,ACATGTGTTT,1.03 ± 0.028
11,ACATGTTGGT,1.02 ± 0.028
12,ACATTAGGGA,1.04 ± 0.058
13,ACATTCGTCC,1.37 ± 0.063
14,ACATTGAACG,1.07 ± 0.017
15,ACATTGCGAC,1.137 ± 0.0028
16,ACATTGGAGG,0.986 ± 0.025
17,ACATTGGGCT,1.01 ± 0.072
18,ACATTGGGGC,0.978 ± 0.046
19,ACATTGTGCG,0.969 ± 0.048
20,ACATTTATGT,0.9939 ± 0.0052
21,ACATTTCTCA,1.04 ± 0.021
22,ACATTTTAAG,1 ± 0.026
23,ACATTTTGG,1.002 ± 0.0081
24,ACCAAATTCA,1.04 ± 0.0087
25,ACCAACCGT,1.16 ± 0.02

row,Sequence,switch fluorescence ratio
1,ACCAAGGGAG,1.037 ± 0.0064
2,ACCAAGTTTT,1.019 ± 0.0072
3,ACCAATGGTC,1.02 ± 0.041
4,ACCACAGTTC,1.06 ± 0.015
5,ACCAGCTACA,1.09 ± 0.033
6,ACCAGGAGAT,1.046 ± 0.0011
7,ACCAGGCAGC,1.12 ± 0.024
8,ACCAGGGGAG,1.26 ± 0.066
9,ACCAGTGGGC,1.04 ± 0.049
10,ACCATAAGGG,1 ± 0.028
11,ACCATCAGCG,1.038 ± 0.0019
12,ACCATTGGTG,1.12 ± 0.013
13,ACCCACTGGG,1.06 ± 0.03
14,ACCCAGAGCG,1.14 ± 0.023
15,ACCCCCCTGT,1.37 ± 0.41
16,ACCCCCTTCT,1.32 ± 0.048
17,ACCCCTATTT,1.1116 ± 0.00045
18,ACCCGACGAG,1.03 ± 0.039
19,ACCCGGATGG,1.01 ± 0.021
20,ACCCGGCTTC,1.024 ± 0.0077
21,ACCCGGGCTT,0.995 ± 0.026
22,ACCCGGGGTT,0.994 ± 0.013
23,ACCCGTAATG,1.75 ± 0.028
24,ACCCTCGAAT,1.02 ± 0.011
25,ACCCTGTTGC,1.12 ± 0.072
